± gives the uncertainty stated by the source.
Experiment: self-splicing fitness, log relative to wild type (ln ratio); higher = more splicing; Tetrahymena group I intron in knt gene, E. coli kanamycin selection, DiMSum; sequences stand for … in CUCUCU…GGAGGGAAAAGUUAUCAGGCAUGCACCUGGUAGCUAGUCUUUAAACCAAUAGAUUGCAUCGGUUUAAAAGGCAAGACCGUCAAAUUGCGGGAAAGGGGUCAACAGCCGUUCAGUACCAAGUCUCAGGGGAAACUUUGAGAUGGCCUUGCAAAGGGUAUGGUAAUAAGCUGACGGACAUGGUCCUAACCACGCAGCCAAGUCCUAAGUCAACAGAUCUUCUGUUGAUAUGGAUGCAGUUCACAGACUAAAUGUCGGUCGGGGAAGAUGUAUUCUUCUCAUAAGAUAUAGUCGGACCUCUCCUUAAUGGGAGCUAGCGGAUGAAGUGAUGCAACACUGGAGCCGCUGGGAACUAAUUUGUAUGCGAAAGUAUAUUGAUUAGUUUUGGAGUACUCGUGGUCG
Outline: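 The eight P1ex-region nucleotides of an intron in the knt kanamycin-resistance gene on pET-22b(+) were all randomised and the library put into E. coli BL21(DE3). Six replicate transformations were grown overnight at 37°C or 30°C on LB agar with or without 25 μg/mL kanamycin, together with 100 μg/mL carbenicillin, 50 μM IPTG and 0.2% rhamnose. Colonies were pooled and amplicon-sequenced on an Illumina HiSeq 2500. Fitness from DiMSum is the error-weighted combination of wild-type-normalised replicate fold changes, kanamycin over none.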

| Sequence | self-splicing fitness (ln) (30 °C) | self-splicing fitness (ln) (37 °C) |
| --- | --- | --- |
| CUGAAGCAAUAUUACGACAC | -2.05 ± 0.32 | – |
| CUGAAGCAAUAUUACGACGG | -0.289 ± 0.15 | -0.879 ± 0.14 |
| CUGAAGCAAUAUUACGAUCA | -1.68 ± 0.13 | -1.53 ± 0.13 |
| CUGAAGCAAUAUUACGCCGU | -2.92 ± 0.31 | -2.4 ± 0.3 |
| CUGAAGCAAUAUUACGCGCG | 0.18 ± 0.092 | -0.0678 ± 0.075 |
| CUGAAGCAAUAUUACGCUAA | – | -2.45 ± 0.32 |
| CUGAAGCAAUAUUACGGACG | 0.0263 ± 0.084 | 0.166 ± 0.1 |
| CUGAAGCAAUAUUACGGAGC | – | -0.931 ± 0.49 |
| CUGAAGCAAUAUUACGGAGU | -3.2 ± 0.37 | -2.33 ± 0.26 |
| CUGAAGCAAUAUUACGGCCG | -0.134 ± 0.2 | 0.451 ± 0.27 |
| CUGAAGCAAUAUUACGGUUC | -3.05 ± 0.18 | -3.5 ± 0.3 |
| CUGAAGCAAUAUUACGUCAG | -4.14 ± 0.2 | -1.46 ± 0.14 |
| CUGAAGCAAUAUUACGUCGA | -2.2 ± 0.17 | -1.57 ± 0.23 |
| CUGAAGCAAUAUUACGUUGC | -4.09 ± 0.26 | -0.264 ± 0.2 |
| CUGCAGCAAUAUUACGCAAA | -2.18 ± 0.2 | -3.55 ± 0.24 |
| CUGCAGCAAUAUUACGCAGC | -2.88 ± 0.32 | – |
| CUGCAGCAAUAUUACGCAUG | -2.5 ± 0.12 | -1.8 ± 0.14 |
| CUGCAGCAAUAUUACGCCAC | -2.82 ± 0.26 | -2.82 ± 0.44 |
| CUGCAGCAAUAUUACGCCCU | -3.15 ± 0.37 | -1.71 ± 0.33 |
| CUGCAGCAAUAUUACGCCGU | – | -1.3 ± 0.31 |
| CUGCAGCAAUAUUACGCGUU | -3.32 ± 0.12 | -2.1 ± 0.16 |
| CUGCAGCAAUAUUACGCUAA | -3.28 ± 0.29 | – |
| CUGCAGCAAUAUUACGGCCA | -1.25 ± 0.34 | -0.578 ± 0.24 |
| CUGCAGCAAUAUUACGGGUA | -3.32 ± 0.4 | -0.797 ± 0.14 |
| CUGCAGCAAUAUUACGUAAG | -0.296 ± 0.069 | 0.277 ± 0.08 |
| CUGCAGCAAUAUUACGUAUG | -1.27 ± 0.091 | -1.19 ± 0.12 |

| Sequence | self-splicing fitness (ln) (30 °C) | self-splicing fitness (ln) (37 °C) |
| --- | --- | --- |
| CUGCAGCAAUAUUACGUCCC | -1.66 ± 0.42 | – |
| CUGCAGCAAUAUUACGUCGC | -4.61 ± 0.46 | -2.83 ± 0.32 |
| CUGCAGCAAUAUUACGUGGC | -3.72 ± 0.21 | -3.03 ± 0.24 |
| CUGGAGCAAUAUUACGAAUC | -3.47 ± 0.43 | -1.68 ± 0.45 |
| CUGGAGCAAUAUUACGAUCG | -1.7 ± 0.14 | 0.264 ± 0.21 |
| CUGGAGCAAUAUUACGGAAU | – | -2.05 ± 0.36 |
| CUGGAGCAAUAUUACGGACG | -1.4 ± 0.11 | -0.808 ± 0.11 |
| CUGGAGCAAUAUUACGGCUG | -1.48 ± 0.15 | -0.00856 ± 0.18 |
| CUGGAGCAAUAUUACGGGGC | -4.12 ± 0.46 | -2.29 ± 0.46 |
| CUGGAGCAAUAUUACGGGUA | -2.59 ± 0.23 | -1.77 ± 0.26 |
| CUGGAGCAAUAUUACGUAAA | -3.78 ± 0.36 | -2.22 ± 0.3 |
| CUGGAGCAAUAUUACGUAAG | -1.06 ± 0.083 | -0.0976 ± 0.1 |
| CUGGAGCAAUAUUACGUAGU | – | -3.43 ± 0.46 |
| CUGGAGCAAUAUUACGUCCA | – | -2.26 ± 0.44 |
| CUGUAGCAAUAUUACGACCC | -1.04 ± 0.43 | – |
| CUGUAGCAAUAUUACGACUC | -4.11 ± 0.42 | -1 ± 0.3 |
| CUGUAGCAAUAUUACGCAGC | -3.17 ± 0.41 | – |
| CUGUAGCAAUAUUACGCAUU | -3.8 ± 0.27 | -3.28 ± 0.47 |
| CUGUAGCAAUAUUACGCCGG | -2.3 ± 0.2 | -0.642 ± 0.19 |
| CUGUAGCAAUAUUACGCCGU | – | -2.96 ± 0.4 |
| CUGUAGCAAUAUUACGCCUC | -2.16 ± 0.4 | – |
| CUGUAGCAAUAUUACGCCUU | -3.46 ± 0.35 | -2.74 ± 0.3 |
| CUGUAGCAAUAUUACGCUCA | -2.22 ± 0.22 | -1.95 ± 0.23 |
| CUGUAGCAAUAUUACGGAAA | -0.916 ± 0.34 | – |
| CUGUAGCAAUAUUACGGUCG | -0.455 ± 0.09 | 0.323 ± 0.12 |
| CUGUAGCAAUAUUACGUACA | -3.41 ± 0.27 | -1.65 ± 0.18 |

| Sequence | self-splicing fitness (ln) (30 °C) | self-splicing fitness (ln) (37 °C) |
| --- | --- | --- |
| CUGUAGCAAUAUUACGUCGC | -2.89 ± 0.28 | -3.19 ± 0.4 |
| CUGUAGCAAUAUUACGUGAC | -0.572 ± 0.098 | -0.0647 ± 0.16 |
| CUGUAGCAAUAUUACGUGGU | -3.42 ± 0.24 | -2.75 ± 0.28 |
| CUGUAGCAAUAUUACGUGUG | -1.79 ± 0.058 | -0.37 ± 0.071 |
| CUUAAGCAAUAUUACGAUCU | -3.14 ± 0.37 | -1.48 ± 0.31 |
| CUUAAGCAAUAUUACGCAGA | -3.41 ± 0.36 | -1.93 ± 0.24 |
| CUUAAGCAAUAUUACGCUCU | -2.77 ± 0.13 | -2.81 ± 0.32 |
| CUUAAGCAAUAUUACGGAGC | – | -4.02 ± 0.39 |
| CUUAAGCAAUAUUACGGCAC | -3.43 ± 0.43 | – |
| CUUAAGCAAUAUUACGGCGC | -3.46 ± 0.37 | -2.7 ± 0.28 |
| CUUAAGCAAUAUUACGGUCC | -1.36 ± 0.29 | – |
| CUUCAGCAAUAUUACGAACG | -0.295 ± 0.062 | 0.406 ± 0.093 |
| CUUCAGCAAUAUUACGACAC | – | -1.11 ± 0.24 |
| CUUCAGCAAUAUUACGACUU | -4.07 ± 0.29 | -2.34 ± 0.21 |
| CUUCAGCAAUAUUACGAGAU | -3.35 ± 0.23 | -2.43 ± 0.26 |
| CUUCAGCAAUAUUACGAUUU | -3.34 ± 0.21 | -2.33 ± 0.18 |
| CUUCAGCAAUAUUACGCACC | -3.9 ± 0.47 | -2.61 ± 0.35 |
| CUUCAGCAAUAUUACGCAUA | -4.27 ± 0.37 | -1.82 ± 0.17 |
| CUUCAGCAAUAUUACGCCGU | -3.17 ± 0.35 | -2.05 ± 0.29 |
| CUUCAGCAAUAUUACGCGUC | -2.6 ± 0.23 | -0.821 ± 0.14 |
| CUUCAGCAAUAUUACGGGCA | -3.21 ± 0.4 | -2.64 ± 0.27 |
| CUUCAGCAAUAUUACGGUAC | -3.21 ± 0.35 | -2.02 ± 0.33 |
| CUUCAGCAAUAUUACGGUAU | -3.47 ± 0.35 | -2 ± 0.2 |
| CUUCAGCAAUAUUACGGUUU | -3.8 ± 0.15 | -2.55 ± 0.13 |
| CUUCAGCAAUAUUACGUAUC | -4.15 ± 0.27 | -2.48 ± 0.23 |
| CUUCAGCAAUAUUACGUCGC | -2.22 ± 0.36 | -2.3 ± 0.42 |

| Sequence | self-splicing fitness (ln) (30 °C) | self-splicing fitness (ln) (37 °C) |
| --- | --- | --- |
| CUUCAGCAAUAUUACGUGAU | -3.65 ± 0.12 | -2.55 ± 0.12 |
| CUUGAGCAAUAUUACGAACG | -0.921 ± 0.13 | 0.12 ± 0.18 |
| CUUGAGCAAUAUUACGAAGG | -1.97 ± 0.2 | – |
| CUUGAGCAAUAUUACGAAUU | -3.53 ± 0.33 | -3.19 ± 0.47 |
| CUUGAGCAAUAUUACGACGA | -2.83 ± 0.42 | -2.51 ± 0.45 |
| CUUGAGCAAUAUUACGACGU | -3.62 ± 0.35 | -2.25 ± 0.21 |
| CUUGAGCAAUAUUACGAGCC | -1.39 ± 0.33 | – |
| CUUGAGCAAUAUUACGCAUU | – | -2.02 ± 0.35 |
| CUUGAGCAAUAUUACGCCAC | -2.82 ± 0.49 | – |
| CUUGAGCAAUAUUACGCCUA | – | -3.13 ± 0.44 |
| CUUGAGCAAUAUUACGCGCA | -2.81 ± 0.27 | -2.23 ± 0.33 |
| CUUGAGCAAUAUUACGCGCU | -2.45 ± 0.29 | -1.22 ± 0.39 |
| CUUGAGCAAUAUUACGGAGC | – | -1.42 ± 0.29 |
| CUUGAGCAAUAUUACGGAGG | -2.13 ± 0.19 | -1.67 ± 0.16 |
| CUUGAGCAAUAUUACGGAUG | -1.75 ± 0.11 | -0.176 ± 0.11 |
| CUUGAGCAAUAUUACGGCAG | -1.01 ± 0.11 | -0.0287 ± 0.15 |
| CUUGAGCAAUAUUACGGCCU | -3.92 ± 0.37 | – |
| CUUGAGCAAUAUUACGGCGC | -3.72 ± 0.43 | -1.55 ± 0.41 |
| CUUGAGCAAUAUUACGGCGG | -1.13 ± 0.1 | -0.746 ± 0.14 |
| CUUGAGCAAUAUUACGGUCA | -1.65 ± 0.18 | -3.58 ± 0.46 |
| CUUGAGCAAUAUUACGUAUA | -3.5 ± 0.2 | -2.96 ± 0.28 |
| CUUGAGCAAUAUUACGUAUC | -3.35 ± 0.19 | -3.22 ± 0.33 |
| CUUGAGCAAUAUUACGUCUA | -2.76 ± 0.46 | – |
| CUUUAGCAAUAUUACGAAGG | -1.23 ± 0.11 | -1.85 ± 0.21 |
| CUUUAGCAAUAUUACGACUA | – | -1.32 ± 0.42 |
| CUUUAGCAAUAUUACGACUG | -0.867 ± 0.094 | 0.418 ± 0.15 |

Source: the supplement of paper PMC7877785
